Assay [1] deals with T1, rat GM-CSF (rat, UniProt P48750 18-144).
T1 construct: Bought recombinant protein; also called rat-GM-CSF (Peprotech); rat recombinant GM-CSF
T1 sequence (looked up): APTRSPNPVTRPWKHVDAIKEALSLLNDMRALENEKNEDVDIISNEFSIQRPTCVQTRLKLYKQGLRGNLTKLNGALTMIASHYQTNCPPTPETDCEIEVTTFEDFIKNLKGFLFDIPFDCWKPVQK
In words: solution equilibrium titration (SET), Fab with rat GM-CSF (Peprotech) as analyte in solution.

The target of assay [2] is macaca mulatta (rhesus) GM-CSF (Macaca mulatta (rhesus)). In words: cell-based or functional assay.
The target of assay [3] is T1, rat GM-CSF. In words: solution equilibrium titration (SET), IgG1 with rat GM-CSF (Peprotech) as analyte in solution.
Assay [4] has as its target T2, human GM-CSF (human, UniProt P04141 18-144). As to the kind of experiment: cell-based or functional assay.
The target of assay [5] is T2, human GM-CSF. As to the kind of experiment: cell-based or functional assay. This is another data set of the same source.
Assay [6] concerns the target T1, rat GM-CSF. In words: SPR (Biacore 3000), Fab captured on anti-F(ab)2, rat GM-CSF as analyte.
Experimental: (§1) This was performed in a capture set-up by surface plasmon resonance (Biacore 3000, Uppsala, Sweden).
(§2) CM5 chips (Biacore, Sweden) were coated with 5000-6000 RU anti-F(ab)₂ (Dianova, Affinipure F(ab)₂ Fragment Goat Anti-Human IgG, F(ab)₂ Fragment specific); 80 μg/ml 10 mM acetate buffer, pH4 on all 4 flow cells, using standard EDC-NHS amine coupling chemistry. […] After capturing of the specific Fab, buffer was injected, to determine the dissociation of anti-Fab/Fab interaction. In a following cycle, the analyte growth factor was injected (20 μl, flow rate 20 μl/min) at a concentration range between 15 and 2000 nM for the determination of the specific signal. Afterwards the achieved buffer sensogram was manually subtracted from the specific one. After each cycle, the flow cells were regenerated with 100 mM HCl (5 μl).
Assay [7] concerns the target T2, human GM-CSF. As to the kind of experiment: solution equilibrium titration (SET, ECL/BioVeris), Fab with human GM-CSF (Leucomax) in solution.
The target in assay [8] is T2, human GM-CSF. In words: SPR (Biacore), Fab over immobilized recombinant human GM-CSF (Peprotech), F1 chip; affinity estimated from off-rates.
Experimental: A respective amount of HSA was immobilized on the reference flow cell. […] Fab was applied in concentration series of 6.3-200 nM at a flow rate of 20 μl/min.
Assay [9] addresses T2, human GM-CSF. As to the kind of experiment: FACS receptor inhibition assay: inhibition of binding of 0.5 µg/ml biotinylated GM-CSF to GM-CSF receptor alpha on CHO-GMRa#11 cells.
Experimental: (§3) All stainings were performed in round bottom 96-well culture plates (Nalge Nunc) with 1-5×10⁵ cells per well. […] Cells were then washed once with 150 μl FACS buffer/well and taken up in 100 μl phycoerythrin-labeled streptavidin (BD Biosciences Pharmingen) which has been diluted 1:400 in FACS buffer. […] IC₅₀ values were determined from the dose response curves obtained using GraphPad Prism v3.03 software applying a non-linear regression curve fit.
(§4) IC₅₀ values were determined from the dose response curves obtained using GraphPad Prism v3.03 software applying a non-linear regression curve fit.
Assay [10] addresses T2, human GM-CSF. As to the kind of experiment: FACS receptor inhibition assay: antibody pre-incubated with 0.5 µg/ml biotinylated GM-CSF, binding to GM-CSF receptor alpha on CHO-GMRa#11 cells.
Experimental: as §3, §4
For assay [11], the target named is T1, rat GM-CSF. As to the kind of experiment: SPR (Biacore 3000), Fab captured on anti-F(ab)2, cytokine as analyte.
Experimental: as §1, §2
Assay [12] concerns the target T3, mouse GM-CSF (mouse, UniProt P01587 18-141).
T3 construct: Bought recombinant protein
T3 sequence (looked up): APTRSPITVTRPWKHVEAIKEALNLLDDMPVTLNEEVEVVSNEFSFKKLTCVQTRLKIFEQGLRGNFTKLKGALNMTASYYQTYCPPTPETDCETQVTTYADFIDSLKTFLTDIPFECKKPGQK
The assay is described as above.
Experimental: as §1, §2

Assay [13] has as its target T4, human IL-3 (human, UniProt P08700 20-152).
T4 construct: Bought recombinant protein
T4 sequence (looked up): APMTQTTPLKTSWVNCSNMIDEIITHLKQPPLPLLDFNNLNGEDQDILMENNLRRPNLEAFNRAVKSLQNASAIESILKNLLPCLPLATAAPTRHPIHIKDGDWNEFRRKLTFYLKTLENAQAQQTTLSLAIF
The assay is described as above.
Experimental: as §1, §2

Assay [14] addresses T5, human IL-4 (human, UniProt P05112 25-153).
T5 construct: Bought recombinant protein
T5 sequence (looked up): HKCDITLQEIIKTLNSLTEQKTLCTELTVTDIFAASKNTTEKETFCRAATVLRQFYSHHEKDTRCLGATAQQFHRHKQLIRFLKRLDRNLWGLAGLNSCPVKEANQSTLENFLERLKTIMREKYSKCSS
Described as above.
Experimental: as §1, §2

In assay [15] the target is T6, human IL-5 (human, UniProt P05113 20-134).
T6 construct: Bought recombinant protein
T6 sequence (looked up): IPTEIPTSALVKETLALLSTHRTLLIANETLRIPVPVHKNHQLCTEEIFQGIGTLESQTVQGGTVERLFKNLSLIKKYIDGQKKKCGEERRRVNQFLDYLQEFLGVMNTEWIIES
The description is as above.
Experimental: as §1, §2

For assay [16], the target named is T7, human IL-13 (human, UniProt P35225 35-146).
T7 construct: Bought recombinant protein
T7 sequence (P35225 35-146 limits assumed): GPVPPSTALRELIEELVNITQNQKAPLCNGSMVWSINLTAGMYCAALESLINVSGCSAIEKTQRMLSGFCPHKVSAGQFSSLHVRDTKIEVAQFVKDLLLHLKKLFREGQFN
The assay is described as above.
Experimental: as §1, §2

The target of assay [17] is T8, human M-CSF (human, UniProt P09603 33-190, limits assumed).
T8 construct: Bought recombinant protein
T8 sequence (looked up): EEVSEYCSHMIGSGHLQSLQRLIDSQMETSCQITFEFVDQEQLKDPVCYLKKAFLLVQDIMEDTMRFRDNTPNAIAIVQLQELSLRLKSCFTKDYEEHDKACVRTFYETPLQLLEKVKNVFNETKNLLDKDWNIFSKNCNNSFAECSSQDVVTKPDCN
The assay is described as above.
Experimental: as §1, §2

Assay [18] deals with T2, human GM-CSF. As to the kind of experiment: cell-based or functional assay. This is another data set of the same source.

Residue numbers refer to the chain shown, from its start.

T2 sequence (P04141 18-144): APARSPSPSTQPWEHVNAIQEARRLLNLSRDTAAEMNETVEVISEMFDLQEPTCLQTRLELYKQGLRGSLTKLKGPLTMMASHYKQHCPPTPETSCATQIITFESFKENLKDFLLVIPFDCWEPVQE

B1: MOR04357 Fab (Fab, V domains shown)
VH: QVQLVESGGGLVQPGGSLRLSCAASGFTFSSYWMNWVRQAPGKGLEWVSGIENKYAGGATYYAASVKGRFTISRDNSKNTLYLQMNSLRAEDTAVYYCARGFGTDFWGQGTLVTVSS
VL: DIELTQPPSVSVAPGQTARISCSGDSIGKKYAYWYQQKPGQAPVLVIYKKRPSGIPERFSGSNSGNTATLTISGTQAEDEADYYCSAWGDKGMVFGGGTKLTVLG
notes: X-cloned Fab (VH of MOR04252 x VL of MOR04302) with FLAG and 6xHis tags; also called Fab MOR04357
For the molecule B1, in [1], the Kd was 1 nM.

B2: MOR04357 IgG1 (antibody, V domains shown)
VH: B1 VH
VL: B1 VL
notes: expressed in HKB11 cells; also called IgG1 MOR04357
As for B2, in assay [2], the “IC50 (pM) in TF-1 proliferation assay, macaca GM-CSF (HEK293)” value was determined as 15 pM. Also, binding in [3] was put at a Kd of 0.13 nM.

B3: MOR03929 Fab (Fab, V domains shown)
VH: QVQLVESGGGLVQPGGSLRLSCAASGFTFSSYWMNWVRQAPGKGLEWVSGISYSGSETYYADSVKGRFTISRDNSKNTLYLQMNSLRAEDTAVYYCARGFGTDFWGQGTLVTVSS
VL: B1 VL with A87S, G89D, D90S, K91T, M93L
notes: Parental HuCAL GOLD Fab with C-terminal FLAG and 6xHis tags
Turning to B3, in assay [4], the “inhibition of TF1 cell proliferation at 2 µM Fab, human GM-CSF (Leucomax) 0.25 ng/ml” value (shortened to “inhibition of TF1 cell proliferation”) is > 50%. For the same molecule, the “IC50 (pM) in TF-1 proliferation assay, human GM-CSF 0.25 ng/ml” value (from here on “IC50 (pM) … human GM-CSF 0.25 ng/ml”) in assay [5] was > 200000 pM. The binding result in assay [6] was “binds”. Besides, the Kd was 2 nM in assay [7] and 4.26 nM in [8]. For the same molecule, in assay [9], the “% inhibition at 5 µg/ml antibody” value is ~60%. In addition, in [10], the IC50 was determined as 35 nM.

B4: MOR04350 Fab (Fab, V domains shown)
VH: B1 VH with Y55R, Y61F
VL: B1 VL
notes: X-cloned Fab (VH of MOR04287 x VL of MOR04302) with FLAG and 6xHis tags
For B4, the “fold improvement of IC50 in TF-1 proliferation assay compared to parental MOR03929” value in assay [4] is > 2000 fold. Also, in assay [5], the “IC50 (pM) … human GM-CSF 0.25 ng/ml” value was 82 pM; the “IC50 x-fold improved compared to BVD2-21C11, TF-1 proliferation assay” value was found to be 80 fold; the “IC50 x-fold improved compared to Mab215, TF-1 proliferation assay” value is 52.6 fold. Also, binding in assay [7] was characterised by a dissociation constant (Kd) of 0.0011 nM. Besides, in assay [8], the Kd is 0.019 nM. For the same molecule, the “% inhibition at 5 µg/ml antibody” value in [9] was ~75%. Also, the IC50 in assay [10] came out at 24 nM.

B5: MOR04354 Fab (Fab, V domains shown)
VH: B1 VH with N53S, Y55W, S65G
VL: B1 VL
notes: X-cloned Fab (VH of MOR04290 x VL of MOR04302) with FLAG and 6xHis tags
As to B5, in assay [4], the “fold improvement of IC50 in TF-1 proliferation assay compared to parental MOR03929” value was > 2000 fold. Besides, in [5], the “IC50 (pM) … human GM-CSF 0.25 ng/ml” value was 56 pM; the “IC50 x-fold improved compared to BVD2-21C11, TF-1 proliferation assay” value was found to be 117 fold; the “IC50 x-fold improved compared to Mab215, TF-1 proliferation assay” value worked out at 77.1 fold. In [7], this molecule showed a Kd of 0.0028 nM. Further, in [8], the Kd was 0.021 nM. The “% inhibition at 5 µg/ml antibody” value in [9] is ~75%. Moreover, the concentration for half-maximal inhibition (IC50) in assay [10] stood at 26 nM.

B6: MOR03684 Fab (Fab, V domains shown)
VH: QVQLVESGGGLVQPGGSLRLSCAASGFTFSSHWMSWVRQAPGKGLEWVSNGIFSDGSATYYADSVKGRFTISRDNSKNTLYLQMNSLRAEDTAVYYCARFQGYGGGFDYWGQGTLVTVSS
VL: DIELTQPPSVSVAPGQTARISCSGDNLPGKYVHWYQQKPGQAPVLVIYYDSNRPSGIPERFSGSNSGNTATLTISGTQAEDEADYYCQSRTQTTIVFGGGTKLTVLG
notes: carries two C-terminal tags (FLAG and 6xHis); also called antibody no
Turning to B6, the “inhibition of TF1 cell proliferation” value in assay [4] was > 50%. Further, the “IC50 (pM) … human GM-CSF 0.25 ng/ml” value in assay [5] was > 200000 pM. The binding result in [11], in assay [12], in [13], in assay [14], in assay [15] and in assay [16] was “no binding (tested: analyte 15 to 2000 nM)” in each case. Further, the binding result in [17] was “no binding (tested: analyte 15 to 2000 nM)”. In addition, the figures for the Kd in [7] and in [8] were 16 nM and 6.42 nM, respectively. Further, the “% inhibition at 5 µg/ml antibody” value in assay [9] is ~25%. Moreover, in assay [10], the 50% inhibitory concentration (IC50) was > 400 nM.

B7: MOR03682 Fab (Fab, V domains shown)
VH: QVQLVQSGAEVKKPGSSVKVSCKASGGTFNSFLISWVRQAPGQGLEWMGGIIPIFGTANYAQKFQGRVTITADESTSTAYMELSSLRSEDTAVYYCARKFISDSWGQGTLVTVSS
VL: DIQMTQSPSSLSASVGDRVTITCRASQTINNYLNWYQQKPGKAPKLLIYTASNLQSGVPSRFSGSGSGTDFTLTISSLQPEDFAVYYCQQYSGSPMTFGQGTKVEIKR
notes: as for B3
As to B7, the “inhibition of TF1 cell proliferation” value in assay [4] was > 50%. The “IC50 (pM) in TF-1 proliferation assay, human GM-CSF” value in [18] was > 200000 pM. The binding result in [11], in assay [12], in assay [13], in assay [14], in assay [15] and in [16] was “no binding (tested: analyte 15 to 2000 nM)” in each case. For the same molecule, the binding result in [17] is on record as “no binding (tested: analyte 15 to 2000 nM)”. Besides, the affinity in [7], expressed as Kd, was 11.4 nM.

B8: MOR04342 Fab (Fab, V domains shown)
VH: B7 VH with G50A, I52S, I54W, F55D, T57V, A58T, N59G
VL: B7 VL with V85T, G93W, S94V, M96H
notes: X-cloned Fab (VH of MOR04283 x VL of MOR04297) with FLAG and 6xHis tags
Regarding B8, in assay [18], the “IC50 (pM) in TF-1 proliferation assay, human GM-CSF” value amounted to 80 pM. The molecule further returned an equilibrium dissociation constant (Kd) in assay [7] of 0.0049 nM.

B9: MOR04297 Fab (Fab, V domains shown)
VH: B7 VH
VL: B7 VL with V85T, G93W, S94V, M96H
notes: Fab with FLAG and 6xHis tags
For B9, the “IC50 (pM) in TF-1 proliferation assay, human GM-CSF” value in assay [18] was 14000 pM. Further, in assay [7], the dissociation constant (Kd) was determined as 0.0492 nM.

B10: MOR04283 Fab (Fab, V domains shown)
VH: B7 VH with G50A, I52S, I54W, F55D, T57V, A58T, N59G
VL: B7 VL
notes: Fab with FLAG and 6xHis tags
In the case of B10, the “IC50 (pM) in TF-1 proliferation assay, human GM-CSF” value in assay [18] is 17300 pM. In addition, in assay [7], the Kd came to 0.113 nM.

(Values after US20090053213A1 (MorphoSys, published 2009).)
